For assay [1] the following is noted: literature reference; cited from earlier work.
Assay [2] deals with R. mucilaginosa enzyme preparation (Rmep). Description: Inhibitor profile of Rmep (Suc-AAPF-pNA hydrolysis). Type of assay: biochemical, Rothia mucilaginosa. To be noted: Eglin C 1.2 μM; Suc-AAPF-pNA. As to the method:
Inhibitors AEBSF, Aprotinin, E-64, EDTA, PMSF and Eglin C were tested at final concentrations of 10 mM, 0.08 mM, 0.1 mM, 1.5 mM, 1 mM, and 0.06 μM, respectively. Rmep was added at a final concentration of 5.7 μg/ml. The percent inhibition was determined from the ratio of the initial velocities of hydrolysis of Suc-AAPF-pNA (SEQ ID NO: 4) in the absence and presence of inhibitor.
(§1) Hydrolysis of paranitroanilide-derivatized substrates—Paranitroanilide (pNA)-derivatized tripeptide substrates were chemically synthesized at >90% purity (21st Century Biochemicals, Marlborough, Mass.). The substrates obtained were Z-YPQ-pNA, Z-QQP-pNA, Z-LPY-pNA, Z-PFP-pNA, Z-PPF-pNA, where Z=benzyloxycarbonyl, Y=tyrosine, P=proline, Q=glutamine, L=leucine, and F=phenylalanine Suc-AAPF-pNA (SEQ ID NO: 4) was obtained from Sigma, where Suc=N-succinyl and A=alanine. The peptides were dissolved in 75-100% DMSO at 10 mM, and were used at a final concentration of 200 μM in 50 mM TrisHCl pH 8.0. Purified Rothia enzyme or subtilisin A from Bacillus licheniformis (Sigma) were tested at final concentrations of 1 μg/ml. Some experiments were conducted in the presence of inhibitors 4-(2-Aminoethyl) benzenesulfonyl fluoride (AEBSF), Aprotinin, E-64, EDTA, phenylmethanesulfonyl fluoride (PMSF) and Eglin C, which were tested at final concentrations of 10 mM, 0.08 mM, 0.1 mM, 1.5 mM, 1 mM, and 0.06-1.2 μM, respectively. Enzymes were preincubated with the inhibitors for 20 min before adding Suc-AAPF-pNA (SEQ ID NO: 4). Substrate hydrolysis was monitored for 10 h at 405 nm using a Genios microtiter plate reader (Tecan, Männedorf, Switzerland) in the kinetic mode at 37° C.

Another assay concerns the target T1, subtilisin A (Bacillus licheniformis, UniProt P00780).
T1 construct: purchased Sigma
As to the kind of experiment: Inhibition of subtilisin A by Eglin C. Type of assay: biochemical. As to conditions: Eglin C 1.2 μM; Suc-AAPF-pNA. As to the method:
as §1

For a further assay, the system named is casein. Description: Casein zymography of R. aeria cell proteins. Type of assay: biochemical. As to conditions: excised bands 1-4, R. aeria cells, 1% casein. As to the method: Bands 1-4 were excised and subjected to mass spectrometric analysis of the amino acid sequences and identification of the protein. The protein was identified as BAV86562.1 from Rothia aeria.
SDS-PAGE and casein zymography—The four cell pellets were resuspended each in 200 μl zymogram sample buffer^2. To separate the proteins, the samples were applied to a non-reducing (no DTT or β-mercaptoethanol-containing) 6% SDS-PAGE gel of 16 cm×20 cm×0.15 cm, using a protean II xi cell system (Bio-Rad, Hercules, Calif.). The composition of this gel was the same as that of previously published 6% gliadin zymogram gels but without incorporation of gliadin^2. After electrophoresis at a constant voltage of 120V at 4° C., the gel was divided in two halves (“A-gel” and “B-gel”). One-half (“A-gel”) was stained with 0.1% Coomassie Brilliant Blue in 40% (v/v) methanol/10% (v/v) acetic acid. The other half (“B-gel”) was developed as a zymogram gel^3. (See FIGS. 12A and 12B). For this, the B-gel was washed twice for 30 min in buffer containing 2.5% Triton X-100 (renaturing buffer; Life Technologies, Carlsbad, Calif.), followed by washing twice for 1 h in buffer containing 20 mM Tris-HCl, pH 7.5 (developing buffer; Life Technologies, Carlsbad, Calif.). The B-gel was then incubated in developing buffer supplemented with 1% casein (Sigma, St. Louis, Mo.) at 37° C. for 1.5 h. […]

T1 sequence (P00780 106-379): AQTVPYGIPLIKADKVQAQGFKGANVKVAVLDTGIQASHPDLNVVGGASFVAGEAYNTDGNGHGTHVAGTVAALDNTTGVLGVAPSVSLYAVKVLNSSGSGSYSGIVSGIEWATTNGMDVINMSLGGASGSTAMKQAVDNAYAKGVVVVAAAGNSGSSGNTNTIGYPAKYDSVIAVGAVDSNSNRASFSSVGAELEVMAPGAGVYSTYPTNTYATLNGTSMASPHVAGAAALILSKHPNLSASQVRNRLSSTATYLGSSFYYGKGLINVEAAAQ

B1: BAV86562.1: Rothia aeria protein annotated glycerol-3-phosphate ABC transporter, belongs to the subtilisin family (peptidase S8) (protein, listed as Rothia aeria)
chain: MAITAGLPATAAPAGDPDTPVAQDIARNSREHAVLSDSMKKAEGNIPVFVQFKGKGAYEQTQSPAVLANKQAPTNKQAEVQAIKTQVQSQAQAAAQSTGAKTLYTTHNIMRGVALQGDAAQIRALANNPEVERITPIVPKKKQNAGSVVDTGAAENWARENSGYTGKDVKIAVVDSGIDYTHADFGGPGTVEAFNKATKLTEMPAADSGLYDAKKYIGGYDLVGDSYDGTNQTAPDNNPIDCSAGGHGTHVAGTAAGYGVNQDGTTFRGDYSKLTAEQLNQMKIGPGAAPEAQLYSFRVFGCTGTTGVVVQALDRTLDPNGDGDFSDRANIVNLSIGGEFSPPDDADAYAVESLNRQGVLAVVSAGNATDYYGRGDTYSDSGQPANAVSALTVANSIGSSYAVDSMEIQAPANVAGKVPGDYTVSYTYTGAKPEALTGTVVTPSESNKFGCEAFSAEDAAKIKDKWVFLEWANADGSLPCGSKVRFDNVEKAGGKGVVLSSEEEKPALPIGGNESIPGFRVAKSASAKVREAAANGELKVRLGTDLKESLRVPSNKKDQLTASSARGYHGTYGYTKPDVAAPGNNISSARVGTGTDGISYTGTSMSAPFAAGVAAQVLQANQSYGPTQLKAAIMNSANHDVRTADGNVYAVDRVGSGRIDAKAAAETKVLLYNADRPAQVSQTFGVLEYAVNEGKQTLTREMTVENFDSHTHTYNISYAGSTDMPGVEFSLPSNITVNPGEKKNFTVTITIDPAAMEKTMDPAMEKTHNSVDPYGDGTELVPEQYRQFIASESGRILLTEGAATLRAPIHAAPKPASAMKVEGSSVEIPAGEHQANLKLTGTELNQRGYKSLLGAFEHGASIERTSPVKLDVSSNAKANMQHVGAASTAPALKASGGNPNDGLLAFGISTWANWDVVSTENTFTVNIDTDGNNRADYMLVTDRAKGIDFPIVRLYGYKNGNLEQIAYYPLNNAWGDTDTNMMDSNALVMAVPLKDLGLSAEKTKDIKYSVSATTQYAWTNVSETGWINYRPFDPKLWFSGTAATVPGFFADAPSSELVAHRAEGATDVKALFLHMHNTTGDLSGLNGAAGNRAQVLEVTEQQQLDPAPSRFTDVPAENQFYAEINWLAQRRITTGYPDGTFRPGENVERGAMAAYFYRLAGTPQFTAPDNPTFSDVPKSHPFYKEIEWMAARGITTGYGDGTFRPSASVNRDAMAAFFYRYANSPQFAAPAASPFKDVPANSQFYKEIAWLAEQGITKGWDDGTYRPGEPIHRDAMAAFLYRYSDKVLK
In the case of B1, the “pH values down to which activity is retained” value in assay [1] is at least 3.0.

B2: Eglin C: an effective inhibitor of B. licheniformis subtilisin A (protein)
chain: TEFGSELKSFPEVVGKTVDQAREYFTLHYPQYDVYFLPEGSPVTLDLRYNRVRVFYNPGTNVVNHVPHVG
As for B2, the “inhibition of Rmep by high concentrations of Eglin C” value in assay [2] is reported as “only partly inhibited”. In addition, the “inhibition of B. licheniformis subtilisin A by Eglin C” value with subtilisin A is on record as “effective inhibitor”.

B3: KGJ00122.1: peptidase S8, subtilisin from Rothia dentocariosa (protein, listed as Rothia dentocariosa)
chain: MPKNTPIRGLSRACLSATLGVTMAITAGLPATAAPAGDPDTPVAQDIARNSREHAVLSDSMKKAEGNIPVFVQFKGKGAYEQTQSPAVLANKQAPINKQAEVQAIKTQVQSQAQAAAQSTGAKTLYTTHNIMRGVALQGDAAQIRALANNPEVERITPIVPKKKQNAGSVVDTGAAENWARENSGYTGKDVKIAVVDSGIDYTHSDFGGPGTVEAFNKATKLTEMPAADSGLYDAKKYIGGYDLVGDSYDGTNQTTPDNNPIDCSAGGHGTHVAGTAAGYGVNQDGTTFRGDYSKLTAEQLNQMKIGPGAAPEAQLYSFRVFGCTGTTAVVVQALDRTLDPNGDGDFSDRANIVNLSIGGEFSPPDDADAYAVESLNRQGVLAVVSAGNATDYYGRGDTYSDSGQPANAVSALTVANSIGSSYAVDSMEIQAPANVAGKVPGDYTVSYTYTGAKPEALTGTVVTPSESNKFGCEAFSAEDAAKIKDKWVFIEWANADGSLPCGSKVRFDNVEKAGGKGVVLSSEEEKPALPIGGNESIPGFRVAKSASAKVREAAATGELKVRLGADLKESLRVPSNKKDQLTASSARGYHGTYGYTKPDVAAPGNNISSARVGTGTGGISYTGTSMSAPFAAGVAAQVLQANQSYGPTQLKAAIMNSANHDVRTADGNVYAVDRVGSGRIDAKAAAETKVLLYNADRPAQVSQTFGVLEYAVNEGKQTLTREMTVENFDSHTHTYNISYAGSTDMPGVEFSLPSNITVNPGEKKNFTVTITIDPAAMEKTMDPAMEKTHNSVDPYGDGTELVPEQYRQFIASESGRILLTEGAATLRAPIHAAPKPASAMKVEGSSVEIPAGEHQANLKLTGTELNQRGYKSLLGAFEHGASIERTSPVKLDVSSNAKANMQHVGAASTAPALKASGGNPNDGLLAFGISTWANWDVVSTENTFTVNIDTDGNNRADYMLVTDRAKGIDFPIVRLYGYKNGNLEQIAYYPLNNAWGDTDTNMMDSNALVMAVPLKDLGLSAEKTKDIKYSVSATTQYAWTNVSETGWINYRPFDPKLWFSGTAATVPGFFADAPSSELVAHRAEGATDVKALFLHMHNTTGDLSGLNGAAGNRAQVLEVTEQQQLDPAPSRFTDVPAENQFYAEINWLAQRRITTGYPDGTFRPGENVERGAMAAYFYRLAGTPQFTAPDNPTFSDVPKSHPFYKEIEWMAARGITTGYGDGTFRPSDSVNRDAMAAFFYRYANSPQFAAPAASPFKDVPANSQFYKEIAWLAEQGITKGWDDGTYRPGEPIHRDAMAAFLYRYSDKVLK
As to B3, in the assay on casein, the “activity in the casein degradation assay (zymogram)” value is recorded as “gluten-degrading properties”.
